Source: the supplement of paper PMC9170038

Key:
MS2 coat protein [1] = experiment: apparent KD of MS2 coat protein, switch ON state; designed switch direction (-1 OFF switch, 1 ON switch): -1; higher = weaker reporter binding; details: FMN input: 0 or 200 uM; Eterna round: R93 (includes R88 designs)
In short: (§1)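 Titration buffer: 100 mM Tris-HCl pH 7.5, 80 mM KCl, 4 mM MgCl2, without or with constant ligand. Designed RNA switches transcribed on-chip from Illumina sequencing clusters received SNAP-549-labelled MS2 coat protein in twofold steps from 0.7 or 1.5 nM to 3 µM. Apparent KD is the median per design of fits to normalised cluster binding curves.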

MS2 coat protein [2] = experiment: apparent KD of MS2 coat protein, switch OFF state (with FMN for OFF switches, without FMN for ON switches); designed switch direction (-1 OFF switch, 1 ON switch): -1; higher = weaker reporter binding; details: FMN input: 0 or 200 uM; Eterna round: R93 (includes R88 designs)
In short: as §1

Row | Sequence | apparent KD of MS2 coat protein (MS2 coat protein [1]) | apparent KD of MS2 coat protein (MS2 coat protein [2])
1 | AACAAGACAGGAUAUACAUGAGGAUCACCCAUGUCACAAUAAAGCAGCGUAACACAAAGUAGAAGGGUCAUGGA [Ruby 9] | 83.3 nM | 71.5 nM
2 | AACAAGUCAGGAUAUGCGAACAGAAAAUAAGCUACACAAAAGCAGAAGGGACAUGAGGAUCACCCAUGUAAAUA [JR_Exc004_Sub501] | 49.9 nM | 29.8 nM
3 | AACACACAUGAGGAUCACCCAUGUAAGGAUAUGCAAGCAAGAAGAAAGAACAGAAAAAGCAGAAGGUACACACA [Amethyst 74] | 28.4 nM | 24.3 nM
4 | AACAGACAUGAGGAUCACCCAUGUAAGGAUAUCCAAAACGAUAAAACAAGAAUGACAGGGAGAAGGUACAGCAA [JR_Exc001_Sub007] | 53.6 nM | 49 nM
5 | AACAGGACAGGAUAUACAUGAGGAUCACCCAUGUGAGAAUUUAGCAGCGUACCACACAGUAGAAGGGUCAUGGA [Ruby 23] | 40.8 nM | 48.6 nM
6 | AACAGGUCAGGAUAUGUGGAAAAAAUAAAAAAAAUAAAAACACAGAAGGGACAUGAGGAUCACCCAUGUCAACA [May 24] | 30 nM | 25.3 nM
7 | AACAGUACAGGAUAUACAUGAGGAUCACCCAUGUGAAAAUUAAGUGGCGUACCACAAAGUAGAAGGGUACUGGA [Moding Maslow revisited (73) 3] | 29.4 nM | 86.4 nM
8 | AACAGUACAGGAUAUACAUGAGGAUCACCCAUGUGAAGAUUAAGUGGUGUACCACAAAGUAGAAGGGUACUGGA [Ruby 90] | 54.9 nM | 77.9 nM
9 | AACAGUACAGGAUAUACAUGAGGAUCACCCAUGUGAGAAACCAAUGGCGUACCAUAAAGUAGAAGGGUACUGGA [Moding Maslow Revisited (73) 31] | 62.3 nM | 158 nM
10 | AACAUACAUGAGGAUCACCCAUGUUAGGAUAUGCCGGGUUAGAGCCAACUAAAAAACCGUAGAAGGGACGAAAA [Bilbo Confounded 10 - Jieux - Exclusion 1] | 30.7 nM | 28.2 nM
11 | AACAUGUCAGGAUAUUUAAGAAAAGAAAAGAAAGAAAAGAAAAAGAAGGGACAUGAGGAUCACCCAUGUAAGAA [EteRNA is fun!] | 117 nM | 56.8 nM
12 | AACAUGUGAGGAUAUAAAAGAAAAGAAAAGAAAGAAAAGAAUUAGAAGGCACAUGAGGAUCACCCAUGUAAGAA [EteRNA is fun!] | 28.2 nM | 31.9 nM
13 | AACUAACAUGAGGAUCACCCAUGUCAGGAUAUGCAUCGAUCGAUCGAUCGAUCGAUCAGCAGAAGGGACAAAAA [Amethyst 92] | 22.3 nM | 37 nM
14 | AACUAGUGAGGAUAUACAAGAAAACAAACAAAAAUGAAGGGACAUGAGGAUCACCCAUGUAGAAGGCACUAACA [Diamond 70] | 48.2 nM | 100 nM
15 | AACUGACAUGAGGAUCACCCAUGUCAGGAUAUGACUUCAAAAAAAAAAAAAAAUGAUGUCAGAAGGGACAUGGA [Design 64: Sub-opt MB] | 19.2 nM | 20.7 nM
16 | AACUGACAUGAGGAUCACCCAUGUCAGGAUAUGACUUCGAAAAAUAAAAUAAACGAUGUCAGAAGGGACAUGGA [Design 67: Sub-opt NB] | 21.5 nM | 41.1 nM
17 | AACUGUACAGGAUAUACAUGAGGAUCACCCAUGUGAGAAUUAAGUGGCGAACCACAAAGUAGAAGGGUACAGGA [Mat - Exclusion 3 - JL mod - D16] | 50.3 nM | 138 nM
18 | AAGAAACAUGAGGAUCACCCAUGUCAGGAUAUCUAAAAGAAAAGAAAAGAAAGAAGAAAGAGAAGGGACAAAGG [Neferirkare] | 39.2 nM | 61.3 nM
19 | AAGAAACAUGAGGAUCACCCAUGUGAGGAUAUGGAAAAGAAAAGAAAAGAAAGAAGAAUCAGAAGGCACAAAGG [Meryhathor] | 46.4 nM | 26.9 nM
20 | AAGAAAGAAGGAUAUACAAGGAAGAAAGAAAAGAAAAGAAAACAUGAGGAUCACCCAUGUAGAAGGUCUUAGAA [EteRNA is fun!] | 19.5 nM | 13.8 nM
21 | AAGAACAGAGGAUAUACAUGAGGAUCACCCAUGUAAAAGAAAGAAAGGGAAAAGAAAAGUAGAAGGCUGAAGAA [Neferkare Heqawaset Amenemnisu] | 32.3 nM | 43.4 nM
22 | AAGAACAGAGGAUAUACAUGAGGAUCACCCAUGUAAAAGAAAGAAGGGAAAGAGAAAAGUAGAAGGCUGAAGAA [Titaru] | 25 nM | 31.7 nM
23 | AAGAACGCAGGAUAUACAUGAGGAUCACCCAUGUAAAAGAAAGAAGGGAAAGAGAAAAGUAGAAGGGCGAAGAA [Usermaatre-setepenamun Iuput I] | 35.3 nM | 41.8 nM

Row | Sequence | apparent KD of MS2 coat protein (MS2 coat protein [1]) | apparent KD of MS2 coat protein (MS2 coat protein [2])
24 | AAGAACGUAGGAUAUACAAAAUAAAAGAAAAGAAAGAAAGAACAUGAGGAUCACCCAUGUAGAAGGGCGAAGAA [Sekhemresewadjtawy Sobekhotep III] | 49.5 nM | 39.6 nM
25 | AAGAACUGAGGAUAUACAUGAGGAUCACCCAUGUAAAAGAAAGAAAAGGGAAAGAAAAGUAGAAGGCAGAAGAA [Nebmaatre Amenhotep III] | 36.9 nM | 42.8 nM
26 | AAGAAGACAGGAUAUACAUGAGGAUCACCCAUGUAAAAGAAAGAGGGAAAAGAGAAAAGUAGAAGGGUCAAGAA [Ptolemy III Euergetes I] | 16.8 nM | 20.5 nM
27 | AAGAAGACAGGAUAUACUAAAGAAAUGAAAAGAAAGAAAGAACAUGAGGAUCACCCAUGUAGAAGGGUCAAGAA [Sewahenre Senebmiu] | 66.2 nM | 45.1 nM
28 | AAGAAGCGAGGAUAUACAAAAUAAAAGAAAAGAAAGAAAGAACAUGAGGAUCACCCAUGUAGAAGGUGCAAGAA [Sehetepkare Intef IV] | 46.7 nM | 43.5 nM
29 | AAGAAGGUAGGAUAUACAAAAUAAAAGAAAAGAAAGAAAGAACAUGAGGAUCACCCAUGUAGAAGGACCAAGAA [Khutawyre Wegaf] | 34.3 nM | 17.7 nM
30 | AAGAAGGUAGGAUAUACAAAAUAAAAGAAAAGAAAGAAAGAACAUGAGGAUCACCCAUGUAGAAGGGCCAAGAA [Khendjer] | 84.2 nM | 35.3 nM
31 | AAGAAGGUAGGAUAUACAUGAGGAUCACCCAUGUAAAAGAAAGAAAAGGGAAAGAAAAGUAGAAGGACCAAGAA [Kheperkheperure Ay] | 32.9 nM | 44.3 nM
32 | AAGAAGUCAGGAUAUCCAAAAGAAAAGAAAAGAAAAGAAAAGGAGAAGGGACAUGAGGAUCACCCAUGUAAGAA [Khnemibre Ahmose II] | 71.3 nM | 20.9 nM
33 | AAGAAGUCAGGAUAUGUCUGUGCGAAAAAAAAAAAGUGCAGACAGAAGGGACAUGAGGAUCACCCAUGUGGAAA [Florian 65% 7] | 46.8 nM | 55.3 nM
34 | AAGAAGUGAGGAUAUACAUGAACGAAAAAAAAAAAGAGCAUGUAGAAGGCACAUGAGGAUCACCCAUGUCAAAA [Georg Simmel] | 29.3 nM | 27.8 nM
35 | AAGAAGUGAGGAUAUCGAAGACAGACGAAAAGUCUGUCAAGCGAGAAGGCACAUGAGGAUCACCCAUGUGGAAG [Mat - Exaclusion 4 - Eli mod - D80] | 31.8 nM | 33.4 nM
36 | AAGAAUCAAGGAUAUACAAGGAAGAAAGAAAAGAAAAGAAAACAUGAGGAUCACCCAUGUAGAAGGUGAUAGAA [EteRNA is fun!] | 327 nM | 846 nM
37 | AAGAUGUCAGGAUAUACAUAAAUAAAAAAUUAUGUUAAAACACAUGAGGAUCACCCAUGUAGAAGGGACAUCAA [AJ 7] | 17.2 nM | 15.5 nM
38 | AAGGAGUAAGGAUAUCGGAAAGGACACGAAAGUGACAAAGACGAGAAGGUACAUGAGGAUCACCCAUGUAAAAA [milkweed 23] | 24.9 nM | 14.5 nM
39 | AAGGAGUGAGGAUAUCGGAAAGGACACGAAAGUGACAAAGACGAGAAGGCACAUGAGGAUCACCCAUGUAAAAA [milkweed 22] | 38.7 nM | 34.6 nM
40 | AAGGGACAUGAGGAUCACCCAUGUCAGGAUAUGCUAUGGAAAAUAAAAAUAAAACAUAGCAGAAGGGACAAAAA [Denovo 4] | 38.5 nM | 53.1 nM
41 | AAGGGACAUGAGGAUCACCCAUGUGAGGAUAUGAUGCGAAUAAAGAAAGAAUAAAGCAUCAGAAGGCACACCAA [Mat - Exclusion 1 - Eli mod - D66] | 77.2 nM | 109 nM
42 | AAGUCCAUAGGAUAUAUAUGGAUAUACAUUUAUGUAGAACUACAUGAGGAUCACCCAUGUAGAAGGAUGGAAUA [Mat - Same state - Mayanna Mod - D141] | 19.5 nM | 14.1 nM
43 | AAGUUAUUAGGAUAUACUUGUGCGAUCCAUACGUUGAUAUUACAUGAGGAUCACCCAUGUAGAAGGAAUAAAAA [JR_Exc002_Sub414] | 48.2 nM | 45.2 nM
44 | AAGUUGACAGGAUAUACUUGGGCAACAAAUAAACUAAUAUAACAUGAGGAUCACCCAUGUAGAAGGGUCAGAAA [JR_Exc002_Sub207] | 46.3 nM | 56.4 nM
45 | AAUAGUGAAGGAUAUACAGGAGAAGUACGAUAAAAGAAAGAACAUGAGGAUCACCCAUGUAGAAGGUCAGAAGU [JR_Exc002_Sub1228] | 33.6 nM | 26.3 nM
